{"source": "patent US20080020979A1", "about": "(WISCONSIN ALUMNI RESEARCH FOUNDATION, published 2008)", "key": {"human αvβ3 integrin [1]": {"molecular_target": "T1, human αvβ3 integrin (human, UniProt P06756 31-1048; P05106 27-788)", "T1 sequence (P06756 31-1048, chain 1 of 2)": "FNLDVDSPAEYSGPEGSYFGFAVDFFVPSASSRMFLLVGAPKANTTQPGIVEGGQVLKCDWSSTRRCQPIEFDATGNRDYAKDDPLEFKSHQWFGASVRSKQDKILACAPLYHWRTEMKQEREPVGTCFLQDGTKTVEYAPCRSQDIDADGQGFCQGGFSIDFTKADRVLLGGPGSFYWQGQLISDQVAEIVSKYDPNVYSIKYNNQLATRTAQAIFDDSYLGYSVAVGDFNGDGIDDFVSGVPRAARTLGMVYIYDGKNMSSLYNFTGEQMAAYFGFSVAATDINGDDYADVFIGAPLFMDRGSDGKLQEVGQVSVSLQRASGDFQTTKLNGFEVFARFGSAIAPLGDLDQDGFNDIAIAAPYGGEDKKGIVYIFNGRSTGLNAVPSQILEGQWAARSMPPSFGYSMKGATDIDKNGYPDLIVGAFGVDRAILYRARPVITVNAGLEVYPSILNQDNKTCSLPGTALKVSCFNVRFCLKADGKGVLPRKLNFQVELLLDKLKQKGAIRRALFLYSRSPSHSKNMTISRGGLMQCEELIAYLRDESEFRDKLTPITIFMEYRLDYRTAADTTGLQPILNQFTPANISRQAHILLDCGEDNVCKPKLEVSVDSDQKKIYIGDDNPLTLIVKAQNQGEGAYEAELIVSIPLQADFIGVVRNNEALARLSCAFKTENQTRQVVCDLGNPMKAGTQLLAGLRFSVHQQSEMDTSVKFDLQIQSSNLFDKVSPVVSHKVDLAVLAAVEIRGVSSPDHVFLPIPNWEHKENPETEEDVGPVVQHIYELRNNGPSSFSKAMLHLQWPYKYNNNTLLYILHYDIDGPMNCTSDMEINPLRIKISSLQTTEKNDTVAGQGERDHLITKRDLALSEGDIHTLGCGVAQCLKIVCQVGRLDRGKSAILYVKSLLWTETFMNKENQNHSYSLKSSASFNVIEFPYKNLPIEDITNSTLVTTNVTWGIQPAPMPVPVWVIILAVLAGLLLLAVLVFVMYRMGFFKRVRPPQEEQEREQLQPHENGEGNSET", "T1 sequence (P05106 27-788, chain 2 of 2)": "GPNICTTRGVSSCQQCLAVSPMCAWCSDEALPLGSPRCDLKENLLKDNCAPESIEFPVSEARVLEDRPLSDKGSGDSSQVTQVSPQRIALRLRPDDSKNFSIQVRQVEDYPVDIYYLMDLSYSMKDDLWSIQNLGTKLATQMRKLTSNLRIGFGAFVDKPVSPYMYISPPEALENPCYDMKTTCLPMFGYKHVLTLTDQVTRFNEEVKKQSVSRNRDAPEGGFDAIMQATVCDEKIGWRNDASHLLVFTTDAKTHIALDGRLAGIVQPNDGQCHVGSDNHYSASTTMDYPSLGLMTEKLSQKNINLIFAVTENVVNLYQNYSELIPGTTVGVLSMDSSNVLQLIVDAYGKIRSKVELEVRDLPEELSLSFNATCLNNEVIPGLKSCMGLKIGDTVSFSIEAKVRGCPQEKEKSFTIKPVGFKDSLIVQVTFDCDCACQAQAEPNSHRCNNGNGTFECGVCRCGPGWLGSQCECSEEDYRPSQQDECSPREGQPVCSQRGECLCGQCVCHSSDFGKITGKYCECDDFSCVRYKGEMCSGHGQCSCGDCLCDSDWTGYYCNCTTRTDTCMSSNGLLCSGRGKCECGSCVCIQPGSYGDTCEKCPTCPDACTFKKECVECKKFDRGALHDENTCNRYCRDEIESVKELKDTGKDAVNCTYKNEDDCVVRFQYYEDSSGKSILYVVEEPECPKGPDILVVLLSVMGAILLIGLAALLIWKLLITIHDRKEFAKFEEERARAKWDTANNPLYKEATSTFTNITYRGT", "experiment": "cell-based or functional assay"}, "human αvβ5 integrin": {"molecular_target": "human αvβ5 integrin (human, UniProt P06756 31-1048; P18084 24-799)", "sequence (P06756 31-1048, chain 1 of 2)": "as the sequence (P06756 31-1048, chain 1 of 2) above", "sequence (P18084 24-799, chain 2 of 2)": "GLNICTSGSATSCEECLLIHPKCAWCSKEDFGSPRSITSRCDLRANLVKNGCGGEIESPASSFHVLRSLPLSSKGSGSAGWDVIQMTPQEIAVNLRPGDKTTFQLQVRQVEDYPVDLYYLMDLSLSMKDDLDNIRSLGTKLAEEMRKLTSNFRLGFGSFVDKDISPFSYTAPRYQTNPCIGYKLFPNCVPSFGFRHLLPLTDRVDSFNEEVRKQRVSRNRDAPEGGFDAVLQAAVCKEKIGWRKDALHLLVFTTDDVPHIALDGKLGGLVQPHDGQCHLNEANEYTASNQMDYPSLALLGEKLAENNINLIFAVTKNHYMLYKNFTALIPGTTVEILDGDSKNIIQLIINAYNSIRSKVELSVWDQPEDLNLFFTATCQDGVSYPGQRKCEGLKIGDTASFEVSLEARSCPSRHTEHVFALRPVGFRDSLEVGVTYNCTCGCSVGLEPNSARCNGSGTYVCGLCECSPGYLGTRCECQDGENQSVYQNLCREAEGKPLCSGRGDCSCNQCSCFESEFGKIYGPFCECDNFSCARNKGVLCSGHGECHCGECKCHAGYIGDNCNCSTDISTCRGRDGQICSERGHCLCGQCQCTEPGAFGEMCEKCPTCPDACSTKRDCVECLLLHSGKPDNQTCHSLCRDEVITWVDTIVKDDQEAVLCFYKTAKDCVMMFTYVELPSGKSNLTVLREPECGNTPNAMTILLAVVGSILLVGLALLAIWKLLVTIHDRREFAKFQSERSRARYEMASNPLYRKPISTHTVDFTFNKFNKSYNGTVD", "experiment": "cell-based or functional assay"}, "mouse αvβ5 integrin": {"molecular_target": "mouse αvβ5 integrin (mouse, UniProt P43406 31-1044; O70309 24-798)", "sequence (P43406 31-1044, chain 1 of 2)": "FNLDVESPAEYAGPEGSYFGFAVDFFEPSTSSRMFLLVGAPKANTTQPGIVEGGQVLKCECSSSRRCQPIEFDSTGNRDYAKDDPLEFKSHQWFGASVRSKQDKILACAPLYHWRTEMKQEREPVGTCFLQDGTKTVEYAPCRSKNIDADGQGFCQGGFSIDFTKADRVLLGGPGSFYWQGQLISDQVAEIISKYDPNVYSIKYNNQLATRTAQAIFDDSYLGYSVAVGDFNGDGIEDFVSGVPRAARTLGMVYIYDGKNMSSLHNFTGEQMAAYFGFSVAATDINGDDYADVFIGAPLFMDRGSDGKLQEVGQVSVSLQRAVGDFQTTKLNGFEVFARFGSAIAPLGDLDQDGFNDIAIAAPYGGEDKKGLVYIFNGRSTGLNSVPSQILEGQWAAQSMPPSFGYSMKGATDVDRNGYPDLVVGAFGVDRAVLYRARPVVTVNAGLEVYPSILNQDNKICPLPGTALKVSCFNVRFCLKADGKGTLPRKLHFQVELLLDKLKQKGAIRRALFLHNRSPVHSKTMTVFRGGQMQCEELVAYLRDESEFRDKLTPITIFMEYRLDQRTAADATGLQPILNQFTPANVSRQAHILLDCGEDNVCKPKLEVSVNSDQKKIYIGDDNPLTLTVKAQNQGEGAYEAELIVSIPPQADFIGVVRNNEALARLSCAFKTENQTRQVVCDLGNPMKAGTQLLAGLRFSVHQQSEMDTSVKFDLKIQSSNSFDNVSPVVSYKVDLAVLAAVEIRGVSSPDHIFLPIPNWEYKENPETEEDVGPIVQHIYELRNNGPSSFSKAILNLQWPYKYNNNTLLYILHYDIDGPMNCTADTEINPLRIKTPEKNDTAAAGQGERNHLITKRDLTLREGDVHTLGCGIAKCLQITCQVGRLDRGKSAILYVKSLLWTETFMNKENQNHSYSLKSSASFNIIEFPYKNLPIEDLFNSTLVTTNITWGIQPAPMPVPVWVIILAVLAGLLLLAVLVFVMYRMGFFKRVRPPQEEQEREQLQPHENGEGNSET", "sequence (O70309 24-798, chain 2 of 2)": "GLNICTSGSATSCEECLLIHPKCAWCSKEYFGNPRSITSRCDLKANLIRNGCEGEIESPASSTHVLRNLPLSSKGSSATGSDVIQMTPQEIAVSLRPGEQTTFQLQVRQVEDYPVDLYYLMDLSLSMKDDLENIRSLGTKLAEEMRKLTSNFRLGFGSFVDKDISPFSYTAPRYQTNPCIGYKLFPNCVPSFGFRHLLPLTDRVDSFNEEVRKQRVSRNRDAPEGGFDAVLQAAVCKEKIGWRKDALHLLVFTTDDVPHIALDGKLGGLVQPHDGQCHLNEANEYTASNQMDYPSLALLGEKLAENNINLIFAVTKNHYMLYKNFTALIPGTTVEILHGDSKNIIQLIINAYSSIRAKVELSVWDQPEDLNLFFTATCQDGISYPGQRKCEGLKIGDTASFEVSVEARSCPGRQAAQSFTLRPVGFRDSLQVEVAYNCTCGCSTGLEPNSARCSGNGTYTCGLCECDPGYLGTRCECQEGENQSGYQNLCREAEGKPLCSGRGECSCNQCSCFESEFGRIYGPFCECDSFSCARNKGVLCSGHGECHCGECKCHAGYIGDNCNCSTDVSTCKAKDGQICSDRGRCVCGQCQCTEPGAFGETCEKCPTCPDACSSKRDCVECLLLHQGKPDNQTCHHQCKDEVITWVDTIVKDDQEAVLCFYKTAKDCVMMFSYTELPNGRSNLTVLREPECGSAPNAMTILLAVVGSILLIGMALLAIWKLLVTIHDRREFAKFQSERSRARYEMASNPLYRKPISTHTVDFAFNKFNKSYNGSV", "experiment": "cell-based or functional assay"}, "[2]": {"molecular_target": "mouse αvβ3 integrin (mouse) (UniProt P43406)", "experiment": "cell-based or functional assay"}, "human αvβ3 integrin [3]": {"molecular_target": "T1, human αvβ3 integrin", "experiment": "co-immunoprecipitation from MDA-MB-231 cells, blot for β3 subunit"}}, "data": [{"molecule": "GST-mS1ED (recombinant mouse Sdc1 ectodomain, amino acids 18-251, expressed as a fusion protein with GST) (from UniProt P18828 18-251)", "values": [{"measurement": "HMEC spreading on VN", "setting": "human αvβ3 integrin [1]", "result": 5, "unit": "µM"}, {"measurement": "IC50, HAEC spreading on VN", "setting": "human αvβ3 integrin [1]", "result": 1000, "unit": "nM"}, {"measurement": "IC50, HMEC-1 spreading on VN", "setting": "human αvβ3 integrin [1]", "result": "3000 to 10000", "unit": "nM"}, {"measurement": "concentration that blocks endothelial cell attachment to VN altogether", "setting": "human αvβ3 integrin [1]", "result": 10, "unit": "µM"}, {"measurement": "percent reduction of HMEC spreading on VN at 1 µM mS1ED", "setting": "human αvβ3 integrin [1]", "result": "> 80", "unit": "%"}, {"measurement": "percent reduction of HMEC spreading on VN at 3 µM mS1ED", "setting": "human αvβ3 integrin [1]", "result": "> 90", "unit": "%"}, {"measurement": "HMEC spreading on VN", "setting": "human αvβ5 integrin", "result": 5, "unit": "µM"}, {"measurement": "IC50, HAEC spreading on VN", "setting": "human αvβ5 integrin", "result": 1000, "unit": "nM"}, {"measurement": "IC50, HMEC-1 spreading on VN", "setting": "human αvβ5 integrin", "result": "3000 to 10000", "unit": "nM"}, {"measurement": "concentration that blocks endothelial cell attachment to VN altogether", "setting": "human αvβ5 integrin", "result": 10, "unit": "µM"}, {"measurement": "percent reduction of HMEC spreading on VN at 1 µM mS1ED", "setting": "human αvβ5 integrin", "result": "> 80", "unit": "%"}, {"measurement": "percent reduction of HMEC spreading on VN at 3 µM mS1ED", "setting": "human αvβ5 integrin", "result": "> 90", "unit": "%"}, {"measurement": "spreading of mouse aortic endothelial cells on VN", "setting": "mouse αvβ5 integrin", "result": 1, "unit": "µM"}, {"measurement": "spreading of mouse aortic endothelial cells on VN", "setting": "[2]", "result": 1, "unit": "µM"}]}, {"molecule": "SNTETAFTSVLPAGEKPEEGEPVLHVEAEPGFTARDKEKEVTTRPRETV", "note": "[synstatin82-130 (SSTN82-130, 49-mer, amino acids 82-130 of mouse Sdc-1)]", "values": [{"measurement": "IC50, HMEC-1 spreading on VN", "setting": "human αvβ3 integrin [1]", "result": "~100", "unit": "nM"}, {"measurement": "IC50, MDA-MB-231 spreading on VN", "setting": "human αvβ3 integrin [1]", "result": "~100", "unit": "nM"}, {"measurement": "fold lower concentration than mS1ED for equal inhibition, endothelial cells on VN", "setting": "human αvβ3 integrin [1]", "result": 10, "unit": "fold"}, {"measurement": "IC50, HMEC-1 spreading on VN", "setting": "human αvβ5 integrin", "result": "~100", "unit": "nM"}, {"measurement": "fold lower concentration than mS1ED for equal inhibition, endothelial cells on VN", "setting": "human αvβ5 integrin", "result": 10, "unit": "fold"}, {"measurement": "IC50, B82L fibroblast spreading on VN", "setting": "mouse αvβ5 integrin", "result": "~100", "unit": "nM"}]}, {"molecule": "FTSVLPAGEKPEEGEPVLHVEAEPGFTARD", "note": "[SSTN88-117 (30-mer)]", "values": [{"measurement": "fold less active, HMEC-1 attachment and spreading on VN", "setting": "human αvβ3 integrin [1]", "result": 3, "unit": "fold"}, {"measurement": "fold less active, HMEC-1 attachment and spreading on VN", "setting": "human αvβ5 integrin", "result": 3, "unit": "fold"}]}, {"molecule": "ASTSTLPAGEGPKEGEAVVLPEVEPGLTAREQEA", "note": "[hSSTN 88-121 (amino acids 88-121 of the human Sdc1 sequence)]", "values": [{"measurement": "IC50, MDA-MB-231 attachment and spreading on VN", "setting": "human αvβ3 integrin [1]", "result": "100 to 300", "unit": "nM"}]}, {"molecule": "STSTLPAGEGPKEGEAVVLPEVEPGLTAREQE", "note": "[hSSTN 89-120 (amino acids 89-120 of the human Sdc1 sequence)]", "values": [{"measurement": "IC50, MDA-MB-231 attachment and spreading on VN", "setting": "human αvβ3 integrin [1]", "result": "100 to 300", "unit": "nM"}]}, {"molecule": "mouse syndecan-1 mutant bearing deletion of amino acids 67-121 (receptor, UniProt P18828 23-311, looked up, whole, on cells; also called mouse mutant lacking the active site) QIVAVNVPPEDQDGSGDDSDNFSGSGTGALPDTLSRQTPSTWKDVTTRPRETVQLPITQRASTVRVTTAQAAVTSHPHGGMQPGLHETSAPTAPGQPDHQPPRVEGGGTSVIKEVVEDGTANQLPAGEGSGEQDFTFETSGENTAVAAVEPGLRNQPPVDEGATGASQSLLDRKEVLGGVIAGGLVGLIFAVCLVAFMLYRMKKKDEGSYSLEEPKQANGGAYQKPTKQEEFYA", "values": [{"measurement": "binding result", "setting": "human αvβ3 integrin [3]", "result": "no binding"}]}]}
